Experimental data from patent publication US8895303B2, “Method of cell culture and method of treatment comprising a vEPO protein variant” (Charite-Universitatsmedizin Berlin, priority 2006, dated 2014).

Columns and labels:
bone marrow cells = assay: Erythroid colony formation assay (CFU-E); assay type: cell-based, mouse; settings: 150 U/l mEPO or rhEPO, comparable protein concentrations of variants; no additional cytokines; counted at DIV2
Experimental: Bone marrow cells were harvested from tibia and femur of male […] mice (8-11 weeks) and resuspended in α-medium (supplemented with 10% fetal calf serum GOLD, 1% penicillium/streptavidine and 1% L-glutamine). Cells were seeded in […] Petri dishes (225.000 cells/dish) containing 8 parts Metho Cult SF 3236 methyl cellulose (StemCell Technologie Inc), 1 part cells and 2 parts a-medium mixed with HEK-cell preconditioned medium containing the EPO derivates (150 U/l in the case of murine EPO). 150 U/l of rhEPO (Roche) was used as positive control. Plates were incubated at 37° C. in a humidified atmosphere containing 5% CO2 for 48 hours. For evaluation only reddish colonies containing at least 6 hemoglobinised cells were taken into account.
Metho Cult SF 3236 triggers the formation of colonies (CFU-M, CFU-G or CFU-E) only after addition of the appropriate cytokines. […] The small irregular reddish colonies disappear by day 3.
In this assay, the hematopoietic potential of the variants was tested and compared to wild type form of EPO as well as rhEPO. The following conditions were prepared for comparison: medium from HEK cells transfected with pZ/EG as negative control, medium from HEK cells transfected with pZ/EG cells plus 150U/l rhEPO (Roche) as a positive control, and medium from HEK cells transfected with either pZ/EG-EPO-IRES (150 U/l murine EPO), pZ/EG-Splice-IRES (variant S; mS) or pZ/EG-G3-IRES (variant G3; mG3). At DIV2 only reddish colonies were counted containing at least 6 hemoglobinised cells. The results of three independent experiments are depicted in FIG. 5.

[1] = system: rat primary cortical neurons; assay: Oxygen glucose deprivation (OGD) neuroprotection assay, LDH release; assay type: cell-based; settings: for neuroprotection (reduction in LDH release): OGD 3 h 15 min (higher level of damage)
Experimental: Rat primary neuronal cultures were obtained from E16 to early E19 embryos of Wistar rats (Bundesinstitut für gesundheitlichen Verbraucherschutz and Veterinärmedizin, Berlin, Germany). Cre-expressing mouse neurons were obtained from E16 embryos of heterozygous transgenic mice expressing Cre-recombinase under the control of the tubulin α-1 promoter (provided by Dr. U. Schweitzer; Experimental Endocrinology, Charité). Murine and rat cultures were prepared according to a modified protocol from Brewer (1995) J Neurosci Res. 42: 674-83. Cerebral cortex was isolated after removal of meninges and rinsed twice in PBS (Biochrom, Berlin, Germany). After 15 min incubation in trypsin/EDTA (0.05/0.02% w/v in PBS) at 37° C., tissues were rinsed twice in N-Med (modified Eagle's medium from Gibco with 10% fetal calf serum, 100 U penicillin plus streptomycin from Biochrom, 2 mM L-glutamine, 100 IE insulin/I, 10 mM HEPES and 44 mM glucose) and dissociated carefully in a small volume of N-Med using a Pasteur pipette. […]
For OGD, the culture medium was washed out by rinsing once with PBS. […] After 24 h, lactate dehydrogenase (LDH) activity was measured in the supernatants as an indicator of cell death.
For LDH measurement 25 μl of medium was mixed with 100 μl fresh β-NADH solution (0.15 mg/ml in 1×LDH-buffer; Sigma, reduced form) in a 96 wells plate (Greiner). 25 μl of 22.7 mM pyruvate (Sigma) was added immediately before placing the plate into the Reader (Thermo Labsystems; MRX^TC Revelation). […] LDH-concentration was calculated proportionally to the LDH-standard (Greiner, system calibrator). […]
For pretreatment with rhEPO, wild type mEPO, wild type hEPO or EPO variants the medium was removed to an end volume of 200 μl and filled up with 200 μl fresh NBM+B27 containing equimolar amounts (corresponding to 200 U/l rhEpo) of EPO or EPO variants, respectively. […] Cell death was assessed 24 h after OGD by measurement of LDH release. […]

Molecule	hematopoietic potential (formation of CFU-E) (bone marrow cells)	protection rate (reduction in LDH release) ([1]; OGD 1 h 40 min and 1 h 50 min)	neuroprotection (reduction in LDH release) [1] [%]
mEPO: wild type mouse erythropoietin expressed in HEK cells (protein, listed as Mus musculus) MGVPERPTLLLLLSLLLIPLGLPVLCAPPRLICDSRVLERYILEAKEAENVTMGCAEGPRLSENITVPDTKVNFYAWKRMEVEEQAIEVWQGLSLLSEAILQAQALLANSSQPPETLQLHIDKAISGLRSLTSLLRVLGAQKELMSPPDTTPPAPLRTLTVDTFCKLFRVYANFLRGKLKLYTGEVCRRGDR	formation of cfu-e	no protection	
mS: murine EPO splice variant, peptide sequence SEQ ID NO 14 (protein, listed as Mus musculus) MGVPERPTLLLLLSLLLIPLGLPVLCAPPRLICDSRVLERYILEAKEAENVTMGCAEGPRLSENITVPDTKVNFYAWKRMEKELMSPPDTTPPAPLRTLTVDTFCKLFRVYANFLRGKLKLYTGEVCRRGDR	lacked hematopoietic potential		~60
mG3: murine EPO variant, peptide sequence SEQ ID NO 16 (protein, listed as Mus musculus) MGVPERPTLLLLLSLLLIPLGLPVLCAPPRLICDSRVLERYILEAKEAENVTMGCAEGPRLSENITVPDTKVNFYAWKRMEVEEQAIEVWQGLSLLSEAILQAQALLANFLRGKLKLYTGEVCRRGDR	lacked hematopoietic potential		~60
